# Experimental data from patent US7244606B2, “Modified BACE” (Elan Pharmaceuticals, Inc., priority 2002, dated 2007).
# “And” between values parts separate entries of the source, which are not always exact repeats. Equal entries are not always repeated.
# B1: CHO BACE: human BACE construct Asp2-2L-TM-His6 expressed in CHO cells; 50:50 mixture of two isoforms (control) (protein)
# chain: TQHGIRLPLRSGLGGAPLGLRLPRETDEEPEEPGRRGSFVEMVDNLRGKSGQGYYVEMTVGSPPQTLNILVDTGSSNFAVGAAPHPFLHRYYQRQLSSTYRDLRKGVYVPYTQGKWEGELGTDLVSIPHGPNVTVRANIAAITESDKFFINGSNWEGILGLAYAEIARPDDSLEPFFDSLVKQTHVPNLFSLQLCGAGFPLNQSEVLASVGGSMIIGGIDHSLYTGSLWYTPIRREWYYEVIIVRVEINGQDLKMDCKEYNYDKSIVDSGTTNLRLPKKVFEAAVKSIKAASSTEKFPDGFWLGEQLVCWQAGTTPWNIFPVISLYLMGEVTNQSFRITILPQQYLRPVEDVATSQDDCYKFAISQSSTGTVMGAVIMEGFYVVFDRARKRIGFAVSACHVHDEFRTAAVEGPFVTLDMEDCGYNIPQTDESHHHHHH
# B2: E. Coli BACE: human BACE prepared as above in E. coli without the P33K mutation (protein)
# chain: MASMTGGQQMGRGSMAGVLPAHGTQHGIRLPLRSGLGGAPLGLRLPRETDEEPEEPGRRGSFVEMVDNLRGKSGQGYYVEMTVGSPPQTLNILVDTGSSNFAVGAAPHPFLHRYYQRQLSSTYRDLRKGVYVPYTQGKWEGELGTDLVSIPHGPNVTVRANIAAITESDKFFINGSNWEGILGLAYAEIARPDDSLEPFFDSLVKQTHVPNLFSLQLCGAGFPLNQSEVLASVGGSMIIGGIDHSLYTGSLWYTPIRREWYYEVIIVRVEINGQDLKMDCKEYNYDKSIVDSGTTNLRLPKKVFEAAVKSIKAASSTEKFPDGFWLGEQLVCWQAGTTPWNIFPVISLYLMGEVTNQSFRITILPQQYLRPVEDVATSQDDCYKFAISQSSTGTVMGAVIMEGFYVVFDRARKRIGFAVSACHVHDEFRTAAVEGPFVTLDMEDCGYNIPQTDES
# B3: β-secretase with the pro-segment intact: β-secretase with the pro-segment intact, from Shi et al., 2001 (protein, UniProt P56817 22-501, looked up)
# pro-form: TQHGIRLPLRSGLGGAPLGLRLPRETDEEPEEPGRRGSFVEMVDNLRGKSGQGYYVEMTVGSPPQTLNILVDTGSSNFAVGAAPHPFLHRYYQRQLSSTYRDLRKGVYVPYTQGKWEGELGTDLVSIPHGPNVTVRANIAAITESDKFFINGSNWEGILGLAYAEIARPDDSLEPFFDSLVKQTHVPNLFSLQLCGAGFPLNQSEVLASVGGSMIIGGIDHSLYTGSLWYTPIRREWYYEVIIVRVEINGQDLKMDCKEYNYDKSIVDSGTTNLRLPKKVFEAAVKSIKAASSTEKFPDGFWLGEQLVCWQAGTTPWNIFPVISLYLMGEVTNQSFRITILPQQYLRPVEDVATSQDDCYKFAISQSSTGTVMGAVIMEGFYVVFDRARKRIGFAVSACHVHDEFRTAAVEGPFVTLDMEDCGYNIPQTDESTLMTIAYVMAAICALFMLPLCLMVCQWRCLRCLRQQHDDFADDISLLK
# modifications: pro-form
# B4: E. Coli P33K-BACE: recombinant human BACE with proline to lysine mutation at position 33, terminated at S432, expressed in E. coli and refolded (protein, listed as Homo sapiens)
# chain: TQHGIRLPLRSGLGGAPLGLRLPRETDEEPEEKGRRGSFVEMVDNLRGKSGQGYYVEMTVGSPPQTLNILVDTGSSNFAVGAAPHPFLHRYYQRQLSSTYRDLRKGVYVPYTQGKWEGELGTDLVSIPHGPNVTVRANIAAITESDKFFINGSNWEGILGLAYAEIARPDDSLEPFFDSLVKQTHVPNLFSLQLCGAGFPLNQSEVLASVGGSMIIGGIDHSLYTGSLWYTPIRREWYYEVIIVRVEINGQDLKMDCKEYNYDKSIVDSGTTNLRLPKKVFEAAVKSIKAASSTEKFPDGFWLGEQLVCWQAGTTPWNIFPVISLYLMGEVTNQSFRITILPQQYLRPVEDVATSQDDCYKFAISQSSTGTVMGAVIMEGFYVVFDRARKRIGFAVSACHVHDEFRTAAVEGPFVTLDMEDCGYNIPQTDES
# modifications: Amino acid sequence of human BACE with P33K mutation.
# Tests used:
# [1] = tested on: substrate S-1 (SEQ ID NO: 10); test: BACE activity assay: cleavage of substrate S-1, HPLC tryptophan fluorescence peak area; type: biochemical; settings: for Activity Assays (Fluorescence Peak Area): 50 μl BACE sample containing 5–10 pmoles protein, 5 μl 1 mM substrate S-1, NaOAc pH 5.0, 1–2 hours at 37° C.
# Protocol: The activity of P33K-BACE expressed in E. coli according the above Examples was compared to the activity of human BACE prepared as above without the P33K mutation, and to human BACE expressed in CHO cells.
# To assay for BACE activity, the following activity assay conditions were utilized, unless specifically indicated otherwise: 20 μl 1 M sodium acetate (NaOAc), pH 5.0; 125 μl H2O; 50 μl BACE sample containing 5–10 pmoles protein; and 5 μl 1 mM substrate S-1 (SEQ ID NO: 10).
# The 200 μl assay reaction was incubated for 1–2 hours at 37° C. Activity was expressed as fluorescence peak area generated by the liberation of a fluorescent (Tryptophan fluorescence) product upon cleavage of Substrate S-1 by recombinant BACE. The reaction was stopped with 100 μl of 4% TFA in H2O. In order to separate the cleavage products and thereby detect activity of recombinant BACE, 50 microliters of the reaction mixture was injected into a Hewlett Packard Model 1100 HPLC equipped with an Alltech Rocket™ column (7 mm i.d., ×53 mm length, C18, 3 μm) pre-equilibrated with 88% Reagent A (0.1% TFA in water), 12% Reagent B (0.1% TFA in acetonitrile). The flow rate over this column was 3 ml per minute.
# [2] = tested on: polypeptide substrate; settings: assayed with a polypeptide substrate; cited from earlier work
Molecule,Activity Assays (Fluorescence Peak Area) [1],"k(cat)/K(m), fold less than β-secretase [2] [fold]",activity compared with BACE ([1]; result in words)
B1,83.32 and 85.20 and 78.07,–,–
B2,31.03 and 45.80 and 31.86,–,–
B3,–,2.3,–
B4,38.41 and 26.50 and 32.84,–,essentially the same activity of BACE
